Experimental data as given in US20020106347A1, “Cytokines and their use in treatment and/or prophylaxis of breast cancer” (priority 1995, published 2002).

Experiments:
Assay type in all cases: cell-based, human
MCF-7 cells [1] = assay: Clonogenic assay in agar after monolayer culture; settings: MCF-7, 7 days monolayer then 14 days agar
Protocol: FIG. 3 is a graphical representation showing clonogenicity of MCF-7M cells. Following suspension culture MCF-7M cell viability was measured by agar culture. Cells were plated in agar with the indicated concentrations of each of the growth factors. After 14 days culture colonies of cells were counted. Cell numbers reported here are the results of 3 experiments, each performed in triplicate, and are expressed according to the number of cells that went into suspension culture.
FIG. 17 is a graphical representation showing clonogenicity of MCF-7 cells after 1 week in suspension culture. Following suspension culture clonogenicity of MCF-7 cells was assayed in agar culture. Cells were plated in agar with the indicated growth factor and maintained at 37° C0 in a humidified incubator with 5% CO2 in air. After 14 days colonies of cells were counted. Results are from 9 experiments using IL-6, LIF and OSM, and 5 experiments using CNTF and IL-11. Each experiment was performed in triplicate, and colony numbers are expressed as a percentage of untreated controls.
Clonogenic potential of cells following monolayer culture was assessed in a semi-solid culture medium. Cells were cultured in triplicate in 35 mm Petri dishes containing 1 ml Iscove's modified Dulbecco's medium (IMDM) supplemented with 25% (v/v) (v/v) BCS, 0.3% (w/v) agar with final concentration of growth factor as outlined above, and with 200 cells per ml for control cultures Cultures were maintained at 37° C. in a humidified incubator with 5% (v/v) CO2 in air. After 14 days, colonies were enumerated using a dissecting microscope. A colony was defined as a clone of greater than 40 cells. All cultures were performed in triplicate.

MCF-7 cells [2] = assay: Cell morphology after exposure to growth factor; settings: MCF-7 / MCF-7M, 6-14 days in growth factor
Excerpt: FIG. 4 is a photographic representation showing morphology of growth factor stimulated MCF-7M cells. Following 1 week in suspension culture containing the various growth factors, MCF-7M cells were cytospun onto slides and subsequently stained with Giemsa.
FIG. 11 is a photographic representation showing cell morphology after exposure to OSM. MCF-7 cells from control cultures and appears of cells after 7 days in OSM. A) Control cells, 10× magnification. B) OSM treated cells, 10× magnification. C) OSM treated cells, 40× magnification. D) OSM treated cells, 100× magnification.
FIG. 15 is a photographic representation showing cell morphology after exposure to OSM. MCF-7 cells from control cultures (Panel A) and appearance of cells after culture for 14 days in OSM (10 ng/ml) (Panel B). MDA-MB-231 cells from control cultures (Panel C) and appearance of cells after culture for 7 days in OSM (Panel D).

[3] = tested on: four breast cancer cell lines; assay: Proliferation of four breast cancer cell lines in monolayer culture (summary)
Protocol: (§1) Proliferation of the cell lines was measured in monolayer culture in 24 well Costar cluster plates. Cells were plated at an initial density of 10 000 cells/ml and cultured in 500 μl RPMI-1640 supplemented with 10% (v/v) (v/v) BCS and with each growth factor as indicated (LIF, 1000 U/ml; IL-6, 100 ng/ml; OSM, 10 ng/ml; CNTF, 10 ng/ml; IL-11, 100 ng/ml). These concentrations are maximally active in other systems (Nandurkar et al., 1996; Hilton et al., 1994; Zhang et al., 1994; Tanigawa et al., 1995). After 7 or 10 days at 37° C. in a fully humidified atmosphere containing 10% (v/v) CO2 in air, cells were trypsinised and counted using a haemocytometer and an inverted microscope. Cell viability was assessed using eosin exclusion. Results were expressed as a percentage of the corresponding untreated control value for that experiment.
Experiments were performed to determine whether these morphological changes were associated with alterations in cell growth. The proliferation of four breast cancer cell lines was examined in monolayer cultures containing either IL-6, LIF, OSM, CNTF or IL-11.

MCF-7 cells [4] = assay: Proliferation of MCF-7 cells in monolayer (liquid) culture, viable cell count; settings: for mean inhibition of cell proliferation: MCF-7, 7 days exposure, LIF 1000 U/ml, IL-6 100 ng/ml, OSM 10 ng/ml, IL-11 100 ng/ml, vs untreated control; for effect on cell proliferation (in words): MCF-7 / MCF-7M, up to 1 week culture
Protocol: FIGS. 2A, B and C are graphical representations of MCF-7M cells in liquid culture. 10^4 MCF-7M cells were cultured in 500 μl RPMI/10% bovine calf serum (BCS) (v/v) containing the indicated concentration of each of the growth factors (OSM or LIF). After 7 days culture viable cells were counted using a hemacytometer. Cell numbers reported here are the result of one experiment, each performed in triplicate.
FIG. 7 is a graphical representation showing inhibition of proliferation of MCF-7 cells by Oncostatin M (OSM). 10^4 MCF-7 cells were cultured in 500 μl RPMI/10% (v/v) BCS with the indicated concentrations of OSM. At 2, 4 and 6 days, viable cells were counted using a hemacytometer. Results are from 3 experiments, each performed in triplicate.
FIG. 8 is a graphical representation showing that MCF-7 cells are inhibited in a dose-dependent fashion by Oncostatin M (OSM). 10^4 MCF-7 cells were cultured in 500 μl RPMI/10% (v/v) BCS with the indicated concentrations of OSM. After 7 days viable cells were counted, and cell number expressed as a percentage of the corresponding untreated control value.
(§2) FIG. 16 is a graphical representation showing inhibition of MCF-7 cells after 7 days in suspension culture. 10^4MCF-7 cells were cultured in 500 μl RPMI/10% (v/v) BCS with the indicated growth factor. After 7 days viable cells were counted using a hemacytometer. Results are from 9 experiments, each performed in triplicate.
as §1

BT-549 cells = assay: Proliferation of BT-549 cells in culture, viable cell count
Protocol: FIGS 5A and B are graphical representations of BT-549 cells in liquid culture. 10^4 BT-549 cells were cultured in 500 μl RPMI/10% (v/v) BCS containing the relevant concentration of each of the growth factors (OSM, IL-11 and IL-6). After 10 days, culture viable cells were counted using a hemacytometer. Cell numbers reported here in the two graphs are the results of 1 experiment performed in triplicate.
FIG. 18 is a graphical representation showing BT-549 cells after 10 days in suspension culture. 10^4BT-549 cells were cultured in 500 μl RPMI/10% (v/v) BCS with the indicated growth factor. After 10 days culture viable cells were counted using a hemacytometer. Results are from 6 experiments, each performed in triplicate.
as §1

MDA-MB-231 cells = assay: Proliferation of MDA-MB-231 cells in culture, viable cell count; settings: MDA-MB-231
Protocol: as §2, with “19” for “16”, “MDA-MB-231” for “inhibition of MCF-7”, “10^4MDA-MB-231” for “10^4MCF-7”, “8” for “9”
as §1

interleukin-6 [IL-6]
effect on colony formation / clonogenic potential (in words) (MCF-7 cells [1]): significant reduction of colony formation | cell morphology (in words) (MCF-7 cells [2]): morphologically similar to the control | cell lines with significant inhibition of cellular proliferation [3]: ¼ | mean inhibition of cell proliferation (MCF-7 cells [4]): 23% | effect on cell proliferation (in words) (MCF-7 cells [4]): did not appear to be able to induce inhibition

B1: interleukin-11 (protein, UniProt P20809 22-199, looked up)
Interleukin-11: PGPPPGPPRVSPDPRAELDSTVLLTRSLLADTRQLAAQLRDKFPADGDHNLDSLPTLAMSAGALGALQLPGVLTRLRADLLSYLRHVQWLRRAGGSSLKTLEPELGTLQARLDRLLRRLQLLMSRLALPQPPPDPPAPPLAPPSSAWGGIRAAHAILGGLHLTLDWAVRGLLLLKTRL
notes: human IL-11 purchased from Pepro Tech; cytokine
effect on colony formation / clonogenic potential (in words) (MCF-7 cells [1]): did not have detectable effect on subsequent clonogenicity | effect on cell proliferation (in words) (BT-549 cells; BT-549): inhibited | mean growth inhibition (BT-549 cells; BT-549, 7 days): 30% | growth inhibition, up to (maximum observed) (BT-549 cells; BT-549, 10 days): up to 63% | mean growth inhibition (BT-549 cells; BT-549, 10 days): 56% | cell lines with significant inhibition of cellular proliferation [3]: 2/4 | mean inhibition of cell proliferation (MCF-7 cells [4]): 27%

B2: ciliary neurotrophic factor (protein, UniProt P26441 1-200, looked up)
Ciliary neurotrophic factor: MAFTEHSPLTPHRRDLCSRSIWLARKIRSDLTALTESYVKHQGLNKNINLDSADGMPVASTDQWSELTEAERLQENLQAYRTFHVLLARLLEDQQVHFTPTEGDFHQAIHTLLLQVAAFAYQIEELMILLEYKIPRNEADGMPINVGDGGLFEKKLWGLKVLQELSQWTVRSIHDLRFISSHQTGIPARGSHYIANNKKM
notes: human CNTF purchased from AMRAD Operations Ltd; cytokine
effect on colony formation / clonogenic potential (in words) (MCF-7 cells [1]): no effect on clonogenic potential | effect on cellular proliferation (in words) (MDA-MB-231 cells): did not respond | effect on cell proliferation (in words) (MCF-7 cells [4]): no effect on cellular proliferation
